According to US5614192A, “T cell receptor peptides as therapeutics for immune-related disease” (Connective Therapeutics, Inc., priority 1993, dated 1997):
Several values for one entry are separate records, joined by “and”; a condition that tells them apart may be missing. Equal entries are not always repeated. Where two headings read alike, the source gives them in different places. Ends that are not written are not given here.

Experiments:
[1] = system: clone C455-69; test: Proliferation response of clone C455-69 to BP peptides (Table 28); format: cell-based, rat
Method: Proliferation assays: Proliferation assays were performed in 96-well microtiter plates. 2×10^4 T cells and 10^6 irradiated thymocytes/well were incubated with stimulation medium only, ConA, or antigen at 37C in 7% CO2. The cultures were incubated for 72 h, the last 18 h in the presence of 0.5 Bq ^3 H-Tdr. The cells were harvested onto glass fiber filters and TCR uptake was assessed by liquid scintillation. Mean CPM wre calculated from triplicate wells. The standard deviation from replicate wells varied <10% from the mean values.
the homologous RtBP sequence. Five μg/ml ConA or 50 μg/ml of each

[2] = system: LN cells and T cell lines; test: Proliferation of LN cells and lines from rats protected by transfer of TCR Vβ8 peptide-specific T cells (Table 15); format: cell-based, rat
Method: ^1 Lymph node (LN) cells were collected 20 days after simultaneous
^2 LN cells were tested directly (NL column).
^3 T cell lines were selected from these LN cells by culture with TCR

[3] = system: T cell lines derived from rats protected from EAE; test: Proliferation of LN cells and T cell lines from rats protected by TCR Vβ8 peptide (Table 12); format: cell-based, rat
[4] = system: lymph node cells and Vβ8-44-54 selected T cell line
[5] = system: peptide-selected T cells; test: Proliferation of peptide-selected T cells after in vivo TCR peptide treatment (Table 24); format: cell-based, Lewis rats
Description: LN cells from control rats responded best to Con A, PPD, GPBP and GPBP (72-89), and GPBP (45-89) (which includes the 72-89 sequence and another immunogenic but non-encephalitogenic peptide). […] LN cells from rats treated ID with the TCR peptide esponded similarly to the control cells, with the exception of a reduced response to GPBP (72-89). […] An aliquot of each of the above 3 groups of LN cells was stimulated in culture with either GPBP or with the TCR peptide for 3 days, and the cells expanded in IL-2 for 5 more days. The proliferative responses to the various antigens and mitogens of these selected T cells were examined, as above.

[6] = system: popliteal LN cells; test: Proliferation of LN cells after EAE induction and TCR peptide treatment (Table 23); format: cell-based, Lewis rats
Method: The proliferative responses and specificity of T cells in the draining LN (popliteal) of rats treated with TCR Vβ8(39-59) peptide for EAE on day 13 after disease induction were examined (Table 23). On day 0, Lewis rats received an EAE-inducing regimen of GP-BP+CFA SC into their hind footpads. […] On day 20, about 7 days after onset of EAE, popliteal LNs were removed and T cell proliferative activity in response to the indicated antigens or mitogens were tested directly.
Results are shown as net ^3 Hthymidine incorporation of 5 ×

[7] = system: T cell immunity; test: T cell immunity / DH response induced by peptide; format: in vivo; conditions: Lewis rats
Description: Immunogenicity of peptides useful in the present invention can be screened by well-known methods, such as use of a DH response in an animal. In such a response, an animal is "sensitized" by injection of an appropriate dose of an antigen, typically subcutaneously (SC), frequently with an adjuvant, such as complete Freund's adjuvant (CFA). Generally about 5-15 days later, the response is "elicited" by challenging the animal, typically intradermally (ID), with an appropriate dose of the antigen, typically in saline or other buffer. The response is assessed 24-48 hours later. […]
The desired peptides, with sequences determined as described above, are prepared using standard synthesis techniques including solution and solid phase sequential amino acid conjugation and recombinant production in prokaryotic or eukaryotic hosts. Verification that the peptide prepared is immunogenic can easily be determined using a DH reaction in an animal (e.g., mouse or rat), as described above. […] The ear swelling response, measured 24 or 48 hours after challenge, serves as a simple and reliable measure of the presence of T cell-mediated immunity to the peptide.

[8] = system: EAE; test: Prevention of EAE by immunization with TCR peptide (Example VI); format: in vivo, Lewis rats; conditions: Lewis rats
Description: EAE is a well-recognized rat model of the human autoimmune disease, multiple sclerosis. […] In this model, the disease is induced by injecting the subject rat with an encephalitogenic form of myelin basic protein, such as, for example, guinea pig basic protein (GPBP) or a synthetic peptide that corresponds to residues 72-89 of GPBP (GPBP(72-89)). Injection of either of these peptides in complete Freund's adjuvant (CFA) induces encephalitogenic T cell clones that utilize preferentially the rat homologs of mouse TCR Vα2 and Vβ8 genes (Chou, Y. K., et al., J. Neurosci. Res. 22:181-187 (1989); Burns, F. R., et al., J. Exp. Med. 169:27-39 (1989)).
^1 EAE was induced by SC challenge with 50 μg GPBP + 400 μg
^2 Rats were injected SC with either: (1) 100 μg of the TCR peptid
^3 Values represent the mean of the maximum severity of EAE. 0, no

[9] = system: LNC and T cell lines; test: T cell proliferation after treatment of EAE with TCR Vβ8 39-59/CFA (Table 27); format: cell-based, rats
Method: Lymphocyte Proliferation: Activation of T cells was measured by ^3 H-Tdy uptake. 500,000 lymph node cells or 20,000 line cells in the presence of 1 million irradiated thymic accessory cells were incubated with culture medium and antigens in microtiter wells for 18 hours prior to the addition of 0.5 μBq labeled thymidine. The cell cultures were harvested onto glass fiber filters and counted by liquid scintillation techniques. Mean CPM were calculated from triplicate cultures. Standard deviations (SD) from replicate cultures varied <10% from the mean value.
^a Treated rats were injected s.q. with 50 μg TCR Vβ839-59
^b LW cells collected after the untreated group recovered from EAE

[10] = system: DTH response; test: Delayed hypersensitivity responses to TCR peptides, ear swelling (Table 26); format: in vivo, Lewis rats
[11] = system: EAE; test: Prevention, suppression and treatment of EAE with TCR Vβ8-39-59 peptide (Table 25); format: in vivo, Lewis rats; conditions: GP-BP/CFA only
[12] = system: clones C372-89 and C455-69; test: Coculture of clones C372-89 and C455-69, proliferation (Table 31); format: cell-based, rat
Method: 50 μg of antigen was added to 10,000 cells of each clone stimulated in […]

[13] = system: EAE; test: Prevention and suppression of EAE by immunization with TCR Vβ8(39-59) (Table 17); format: in vivo, Lewis rats; conditions: antigen alone, day 0 (no TCR peptide)
[14] = 50 μg/ml peptide (5 μg/ml ConA), 20,000 clone C455-69 cells, 3 days
[15] = Treated rats (TCR Vβ8 39-59/CFA at onset), LNC
[16] = Untreated rats (GPBP/CFA only), LNC
[17] = 1st value column (head not given; LN cells of protected rats)
[18] = 2nd value column (head not given, TCR Vβ8(39-59)-selected line)
[19] = 4th value column (head not given; mixed TCR- and BP-specific T cells)
[20] = A. TCR Vβ8 peptide-specific T cell transfer
[21] = 50 μg antigen, 10,000 cells, 3 days

## APKRGSGKDSH HAARTTH (APKRGSGKDSHHAARTTH) [43-67, Gp-BP fragment 43-67 (printed from residue 50)]
[1]; [14]
  Response CPM/1000 ± S.D.: 249 ± 12 CPM/1000

## APKRGSGKDSH HAARTTHYG (APKRGSGKDSHHAARTTHYG) [50-69]
[1]; [14]
  Response CPM/1000 ± S.D.: 277 ± 14 CPM/1000

## Concanavalin A [Con A, reference compound]
[2]
  Proliferation, TCR Peptide Selected Line: 46
[3]
  T Cell Proliferation: 99 and 96 and 80 and 123
[1]
  Response CPM/1000 ± S.D.: 229 ± 15
[4]
  Response of Lymph Node Cells: 293 ± 39
  Response of T Cell Line, percent (in parentheses): 88% and 93% and 106%
[5]
  Proliferative response: 76 and 52 and 68 and 95
[6]
  T Cell Proliferation: 85 and 78 and 146

## KQNNNHNNMYWYRQDMG [Vβ8 (25-41), CDR1 peptide of TCR Vβ8]
[7]
  induction of T cell immunity: does not induce T cell immunity
[4]
  Response of Lymph Node Cells: 14 ± 0
  Response of T Cell Line: 6 ± 1
[8]
  protection from EAE: does not protect Lewis rats from EAE

## LRLIHYSYDVN [Vβ8-44-54, LRLIHYSYDVN]
[4]; 72 h
  inhibition of T cell response: 76%

## SGKDSH HATRTTHYGSLPQK [55-74 modified]
[1]; [14]
  Response CPM/1000 ± S.D.: 150 ± 15 CPM/1000

B1: Rat BP: rat myelin basic protein (protein, UniProt P02688 2-195, looked up)
Myelin basic protein: ASQKRPSQRHGSKYLATASTMDHARHGFLPRHRDTGILDSIGRFFSGDRGAPKRGSGKVPWLKQSRSPLPSHARSRPGLCHMYKDSHTRTTHYGSLPQKSQRTQDENPVVHFFKNIVTPRTPPPSQGKGRGLSLSRFSWGAEGQKPGFGYGGRASDYKSAHKGFKGAYDAQGTLSKIFKLGGRDSRSGSPMARR
[9]; [15]
  Proliferation: 49 ± 2 CPM/1000
[9]; Treated rats, line BP/1st
  Proliferation: 14 ± 2 CPM/1000
[9]; Treated rats, line Vβ8/1st
  Proliferation: 4 ± 1 CPM/1000
[9]; [16]
  Proliferation: 40 ± 2 CPM/1000
[9]; Untreated rats, line BP/1st
  Proliferation: 46 ± 3 CPM/1000
[9]; Untreated rats, line Vβ8/1st
  Proliferation: 11 ± 4 CPM/1000
[3]; [17]
  T Cell Proliferation: 11 cpm × 10^-3
[3]; [18]
  T Cell Proliferation: 1 cpm × 10^-3
[3]; [19]
  T Cell Proliferation: 9 cpm × 10^-3
[3]; GPBP-selected line
  T Cell Proliferation: 9 cpm × 10^-3
[1]; [14]
  Response CPM/1000 ± S.D.: 0.2 ± 0.1 CPM/1000
[5]; day 13 inj. Control, selection with GPBP
  Proliferative response: 46
[5]; day 13 inj. TCR Vβ 8(39-59) + CFA, selection with GPBP
  Proliferative response: 14
[5]; day 13 inj. TCR Vβ 8(39-59) + CFA, selection with Vβ 8(39-59)
  Proliferative response: 4
[5]; day 13 inj. TCR Vβ 8(39-59) ID, selection with CPBP (so in the source)
  Proliferative response: 36

B2: GPBP: guinea pig basic protein, encephalitogen (protein, UniProt P25188 1-167, looked up)
Myelin basic protein: ASQKRPSQRHGSKYLATASTMDHARHGFLPRHRDTGILDSIGRFFGSDRAAPKRGSGKDSHHAARTTHYGSLPQKSQRSQDENPVVHFFKNIVTPRTPPPSQGKGRGLSLSRFSWGAEGQKPGFGYGGRADYKSKGFKGAHDAQGTLSKIFKLGGRDSRSGSPMARR
[2]; [20]
  Proliferation, GPBP Selected Line: 16 cpm × 10^-3
  Proliferation, TCR Peptide Selected Line: 0 cpm × 10^-3
[2]; A. rats given 3 × 10^7 TCR Vβ8 peptide-specific T cells + GPBP/CFA, LN cells day 20
  Proliferation, LN: 80 cpm × 10^-3
[2]; B. Saline + GPBP/CFA
  Proliferation, GPBP Selected Line: 65 cpm × 10^-3
  Proliferation, LN: 32 cpm × 10^-3
[9]; GP-MBP-selected line from TCR peptide-treated rats
  net proliferation of reactive cells: 12,000 CPM
[9]; GP-MBP-selected line from untreated EAE-recovered rats
  net proliferation of reactive cells: 84,000 CPM
[9]; [15]
  Proliferation: 50 ± 7 CPM/1000
[9]; Treated rats, line BP/1st
  Proliferation: 29 ± 6 CPM/1000
[9]; Treated rats, line Vβ8/1st
  Proliferation: 6 ± 1 CPM/1000
[9]; [16]
  Proliferation: 49 ± 5 CPM/1000
[9]; Untreated rats, line BP/1st
  Proliferation: 99 ± 9 CPM/1000
[9]; Untreated rats, line Vβ8/1st
  Proliferation: 23 ± 2 CPM/1000
[9]; Untreated rats, line Vβ14/1st
  Proliferation: 11 ± 1 CPM/1000
[10]; GP-BP/CFA immunized rats, ear test Day 12 (EAE onset)
  48 Hour DTH Response: 35 ± 5
[10]; Normal or saline/CFA rats, ear test Day 12
  48 Hour DTH Response: 5 ± 3
[11]
  Duration: 6.6 ± 0.9 days
  EAE/TOTAL: 26/26
  Max Clin. Signs: 3.4 ± 0.2
  Onset: 12
[12]; [21]
  Proliferation, C372-89: 40 ± 3 CPM/1000
  Proliferation, C455-69: 50 ± 9 CPM/1000
[12]; coculture, 10,000 cells of each clone
  Proliferation, C372-89 + C455-69: 91 ± 12 CPM/1000
[13]
  Clinical Score: 3.1 ± 0.6
[3]; [17]
  T Cell Proliferation: 16 cpm × 10^-3
[3]; [18]
  T Cell Proliferation: 3 cpm × 10^-3
[3]; [19]
  T Cell Proliferation: 102 cpm × 10^-3
[3]; GPBP-selected line
  T Cell Proliferation: 93 cpm × 10^-3
[1]; [14]
  Response CPM/1000 ± S.D.: 203 ± 7 CPM/1000
[6]; LN cells day 20 of Control rats (saline day 13)
  T Cell Proliferation: 49 cpm × 10^-3
[6]; LN cells of rats given TCR Vβ 8(39-59) 50 μg ID day 13
  T Cell Proliferation: 44 cpm × 10^-3
[6]; LN cells of rats given TCR Vβ 8(39-59) 100 μg SC (in CFA) day 13
  T Cell Proliferation: 50 cpm × 10^-3
